The values below are quoted from earlier work in publication PMC7106946.

The target of the series is Asp46 (UniProt position 303, VILFMDRNLEQ). The series can be described thus: NMR.

Consider “Hedgehog protein autoprocessing domain (HhC) Hint domain, wild type at position 46 (Drosophila melanogaster)”, for which the pKa is 5.8.

One may read the pKa as the negative logarithm of the acid dissociation constant.
